Data taken from US20170210824A1 (SALK INSTITUTE FOR BIOLOGICAL STUDIES, published 2017).
Where no end group is shown, it is not given here. [ ]: non-standard residue; d: D form. pY = N[C@@H](Cc1ccc(OP(=O)(O)O)cc1)C(=O)O

Columns and labels:
[1] = molecular target: T1, FLAG-NME1 with 1-pHis, in stably transfected HEK293 cells (UniProt P15531 1-152, limits assumed, 1-phosphohistidine (generated in vivo)); test: immunoblot of FLAG-NME1 293 cell lysates
T1 construct: not shown: FLAG tag
Experimental: Immunoblotting with anti-pHis antibodies: In general, immunoblotting with anti-pHis antibodies was performed with modifications to standard procedures to help preserve pHis for detection. Buffers were adjusted to pH 8-9 to stabilize pHis and methods were modified to avoid heating samples. Protein samples were prepared in pH 8.8 sample buffer (5×=10% SDS, 250 mM Tris-HCl, pH 8.8, 0.02% Bromophenol blue, 50% glycerol, 50 mM EDTA, 500 mM DTT) for electrophoresis. Mammalian whole cell lysates were prepared by rinsing 70-100% confluent 10 cm² dishes twice with 5 ml cold TD buffer (TBS −/−, pH 8). Cells were scraped directly into 2× pH 8.8 sample buffer, incubated on ice and a cup horn sonicator was used (3-5×5 sec bursts) to disrupt cells and shear DNA. Lysates were clarified by centrifugation (14,000×g for 5-15 min at 4° C.) and analyzed immediately using freshly prepared Bis-Tris polyacrylamide minigels with a modified, pH 8.8 stacking gel and either 10% or 12.5% resolving gels. Electrophoresis buffer recipes were as follows: Running Buffer: (1×20 L, pH 8.5) 20 g SDS, 60 g Trizma Base, 288 g glycine, dH₂0 to 20 L, Transfer Buffer: (1×4 L, pH 8.5) 56.7 g glycine, 4 g SDS, 12 g Trizma Base, 800 ml MeOH, dH₂0 to 4 L. All electrophoresis steps were performed at 4° C. and samples were resolved at 90-100V for 2-3 hr. […]

[2] = molecular target: T2, Nck pY105 peptide (CGERLpYDLNMPAYVK); test: pTyr peptide dot blot
T2 construct: also called pTyr (NCK) peptide; pTyr peptide (Nck pY105)
T2 peptide: CGERL[pY]DLNMPAYVK

[3] = molecular target: T3, Eck (Ephrin A2) pY588 peptide (CLKPLKTpYVD); test: pTyr peptide dot blot
T3 construct: also called Eck/EphA2 pTyr peptide
T3 peptide: CLKPLKT[pY]VD

[4] = molecular target: T4, Nck Y105 peptide (CGERLYDLNMPAYVK); test: pTyr peptide dot blot
T4 construct: also called unphosphorylated Nck peptide
T4 peptide: CGERLYDLNMPAYVK

[5] = molecular target: T5, FAK pY397 peptide (AVSVSETDDpYAEIIDEEDTYT) (phosphotyrosine at position 10 (pY397)); test: pTyr peptide dot blot
T5 construct: also called FAK pTyr peptide
T5 peptide: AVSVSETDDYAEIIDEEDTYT

[6] = molecular target: T6, Eck (Ephrin A2) Y588 peptide (CLKPLKTYVD); test: pTyr peptide dot blot
T6 construct: also called unphosphorylated Eck peptide
T6 peptide: CLKPLKTYVD

T1 sequence (P15531 whole entry): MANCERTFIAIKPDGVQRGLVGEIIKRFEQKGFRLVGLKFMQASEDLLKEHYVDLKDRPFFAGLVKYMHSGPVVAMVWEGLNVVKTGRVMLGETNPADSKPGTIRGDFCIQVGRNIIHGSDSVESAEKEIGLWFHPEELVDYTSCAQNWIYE

binding result [1]: no binding
binding result [2]: no binding
binding result [3]: no binding
binding result [4]: no binding
binding result [5]: no binding
binding result [6]: no binding
B1: 3-pHis mAb SC39-4 (antibody, V domains shown)
VH: ESGGRLVTPGGSLTLTCTVSGFSLSRYNMGWVRQAPGKGLEWIGWIPFRGSLKYATWATGRFTISRTSTTVDLRMTGLTAADTATYFCVRSSDGFDLWGPGTLVTVSS
VL: QFVMTQTPASVEAVVGGTVTIKCQASRDTGDGLIWYQQKPGQPPKRLIYKASTVASGVPSRFKGRGSGTDFTLTISDLECADAATYYCHSNFYNRWTYGNAFGGGTEVVVKG
notes: Rabbit hybridoma monoclonal IgG; also called anti-3-pHis mAb SC39-4; SC39s (subclones of MC39)
